In a protein production outcome set (Wang et al. 2014):

Assay: label from the status in PepcDB records
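Note: failed if final PepcDB status was selected cloned or expressed and not failed if soluble or beyond.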

Sequence | protein production
MKPLSARQQQVLQATVHHYVDTMEPVGSRTLVQRFGIPASSATVRSAMGALEKRGLLTQPHTSAGRIPSALGYRCYVDDLLPEPGVAVQHLERELTGLSLRWAALDDLLQQLARRLTDFTGLMSLITRPQQPRAQLEAIRLVQSGDRLLVMLVEDSGRASHLNLRLPPGASDELTAIERWTDQQLEDGSINWRSLPPQLQRSGDVLRSALDHPSMSPETPLVVHGLSRLVAEPEFHSTAELRPLLELIDDQPCAVVSATDQPGVWIGEEHPQKALQACSVVQAPYRCGQEGVGQVALVGPMRMAYATAHAAVQRVARHLDLLLN | failed
MKPNFSRDYQLKWLFYVYCVRSEVGEEEEKKKVTKKTRKRVRFDLNVQTYEPIVPSRYENACSDDEEGKGGRSKGSSAIDKKPEDLSSRSVYPSNYRYHNCVDSFEDEDDEMGYGESDLEDEDYYTDNENDYEDDADDEDEEEEEENEQDVAPLLNPVENLAQWKAVKARPVKVKRVMKENVEEDMDDQAKPLLKEIIVNTSLSNWLASPKSLHANGSSKRSPIVDITNMENR | failed
MKPQLSWKVGGQQGEGIESTGEIFATAMNRKGYYLYGYRHFSSRIKGGHTNNKIRVSTTPVHAISDDLDILIAFDQETIDVNHHEMREDSIILADAKAKPVKPEGCHAQLIELPFTATAKELGTALMKNMVAIGATSALMNLNTNTFEELITNMFSKKGDKVVEVNIQALNEGYQLMQSRLPEIDGDFELESTDALPHLYMIGNDAIGLGAIAAGSQFMAAYPITPASEVMEYMIANISKVNGAVIQTEDEIAAVTMAIGANYGGVRAFTASAGPGLSLMMEAIGLSGMTETPLVIINTQRGGPSTGLPTKQEQSDLMQMIYGTHGDIPKIVVAPTDAEDAFYLTMEAFNLAEQYQCPVIVLSDLQLSLGKQTVEKLDYNRIEIKRGEIIQSDIEREEDDKGYFKRYALTSNGVSPRPIPGVKGGIHHITGVEHNEEGKPSESASNRQQQMEKRMRKIEQLLIESPVEANLQHEDADILYIGFISTKGAIQEGSNRLNQQGIKVNTIQIRQLHPFPTSVIQDAVNKAKKVVVVEHNYQGQLASIIKMNVNIHDKIENYTKYDGTPFLPHEIEEKGKIIATEIKEMV | not failed
MKPRNIAIACGVAGVAVSLAAATGIVYHKQIKSAASLKRLTGYADGYDLYAIDIAYDYDLNRIIAAGVRDDQAYIDAVVAQVLPGVPVHVQAPQFACSAFVAVDAEGRVRTGRNYDFKDDTSALLVRNHPRGGYASIGFAALNNLGDNTPLDSVAGRAAALMGPFGQLDGVNECGVSIAVLTLDSKPCDQDAQRPVINTSLAIRLVLDRAATTQEAVDLLSAYDMHAMAGRDYHFFINDAAGDARVVEWDPRDPDRAFKATPVRQVTNFYACYGDEVLPNQKNGELGHGKERAIAIADVLDAHVGAQDEAVAWKALRAAAQEPNPKDITSNTQWSVVFDNTEPAAAITLRRHWGDVDAFAL | failed
MKPSFKKLLLLFSIITILSIACTPHAKASGRSWKSWFIEQYFWLKRDKSYYKVQDESSFQKYLNASREQSDKGYYLDPNSVNGGLVQERLFDMQVYSWNDNGKANQKTIFYLAGGSYLNNPTPYHISMLKTLSTSLDAKIILPIYPKTPRYTYDYAIPRLVNLYRHFHEKNANLTLMGDSAGGGLALGLAHALSHQSGQEAIPQPKNIILLSPWLDVTMKHPEIPKYEDTDPILSAWGLARVGEIWANGSNNTNHTYVSPKNAPATKLAPITLFTGTREIFFPDIRDYAAQLQAANHPVNYIAQEGMNHVYPIYPIEEAKTAQYQMIDIINKTP | failed
MKPSQWTLRWVTLCGCGMLAASAAAVELPGTVQPSQLDERFKPRSEPQAKPEAPLVVPKQVAPQGSEQIRFKLREIRIEGNTRYDKAVLESYYQHMLGEQVSLAELVDLANRLTAKYRQDGFLLTQVVVPEQSIEGGKVRLQVIEGYLEHVQIKGTVDGPRVRVEELLAPLTEKRPLDADTLERGLLLVGDLPGVNVQSVLSPGQALGSSNLDVALQQQRYEGFVSLDNRGSHYTDPTTLAFGATEFSRLGFYEQIDVLGAISPFSDATRYIQLRGTLPLGGMFAGDTLQIMGSYSKVNPDIPDSVFPFDSVSKSTEGSISYNHPFIRSRSQNLSGGLALQWKDTETRLRDFASDASNPGRDHVRVFQQRLTYDWVDRWMGINLAEVRNNIGLDMWGATKKDDERRSREVADGRFVYLNGNIGRLQGLGGPWSVYGELQWQYSFDPLLPSERFGVGGSGIGRGFAPGNITGDRGFALKLEPRYGQAVGYSWLRSYQAYAFYDWGKTYNLDVDDDEQQKLGSIGAGVRFNLTDQLSFNPEIARQVIGEPADQRDGKRETRVLFNVVARF | failed
